In PMC5861439 one finds Kd data, which are given here for two substances.

By Kd is commonly meant the free concentration of one partner at which half of the binding sites on the other are occupied at equilibrium, for simple one-to-one binding. The low end stands for higher affinity, the high end for lower affinity.

The test has as its target Saccharomyces cerevisiae Asf1 (2–169) (Saccharomyces cerevisiae) (UniProt P32447). The test can be described thus: MST.

Chain of Saccharomyces cerevisiae Asf1 (2–169) (Saccharomyces cerevisiae) (P32447 2-169): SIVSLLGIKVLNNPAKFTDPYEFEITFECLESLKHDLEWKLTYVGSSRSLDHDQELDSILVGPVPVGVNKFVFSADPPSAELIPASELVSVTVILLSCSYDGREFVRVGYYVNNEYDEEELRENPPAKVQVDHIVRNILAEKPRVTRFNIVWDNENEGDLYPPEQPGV
Chain of full-length Saccharomyces cerevisiae Rtt109 (Q07794 whole entry): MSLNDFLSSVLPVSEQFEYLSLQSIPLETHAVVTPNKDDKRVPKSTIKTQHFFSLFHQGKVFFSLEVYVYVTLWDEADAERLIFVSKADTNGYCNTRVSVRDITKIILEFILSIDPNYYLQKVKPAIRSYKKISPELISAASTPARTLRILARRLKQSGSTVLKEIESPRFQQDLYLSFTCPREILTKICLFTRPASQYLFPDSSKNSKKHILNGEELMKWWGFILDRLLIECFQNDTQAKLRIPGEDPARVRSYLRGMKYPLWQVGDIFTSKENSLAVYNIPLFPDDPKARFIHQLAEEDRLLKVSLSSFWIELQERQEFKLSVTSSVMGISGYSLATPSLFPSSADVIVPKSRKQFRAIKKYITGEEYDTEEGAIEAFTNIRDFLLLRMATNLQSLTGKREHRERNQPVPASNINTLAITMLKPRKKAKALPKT
Chain of Rtt109−Vps75_(2) complex (Q07794 whole entry): as above
Chain of Rtt109−Vps75_(2) complex (P53853 whole entry): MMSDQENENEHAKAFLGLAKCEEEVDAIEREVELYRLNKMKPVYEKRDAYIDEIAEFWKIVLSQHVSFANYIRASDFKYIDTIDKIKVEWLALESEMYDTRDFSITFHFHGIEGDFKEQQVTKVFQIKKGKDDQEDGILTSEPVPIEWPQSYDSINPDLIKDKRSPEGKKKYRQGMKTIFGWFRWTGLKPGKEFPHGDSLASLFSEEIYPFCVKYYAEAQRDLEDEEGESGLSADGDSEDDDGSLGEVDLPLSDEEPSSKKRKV

Turning to “Rtt109−Vps75_(2) complex (from UniProt Q07794;P53853)”, the Kd is 42.7 µM. Next, “full-length Saccharomyces cerevisiae Rtt109 (from UniProt Q07794 1-436) (enzyme)”: 7.63 µM.
